Measurements published in patent publication US10864285B2, “Methods for the diagnosis and treatment of Sjögren's syndrome” (The U.S.A., as represented by the Secretary, Department of …, priority 2012, dated 2020).

How the values were obtained:
[1] = test system: salivary and lacrimal glands of mice; test: Histopathological scoring for lymphocytic infiltrates (focus score); assay type: in vivo, mouse; settings: 20 weeks post cannulation, vs control mice, statistically significant
Experimental: Submandibular glands (SMG) were removed for histological analysis from mice at the time of sacrifice, and placed O/N in 10% formalin. After fixation, the tissues were dehydrated in an ethanol series and embedded in paraffin according standard techniques. Sections were cut at 5 μm and subsequently stained with hematoxylin and eosin (H&E). Histopathological scoring was performed using the focus score. A focus is an aggregate of 50 or more mononuclear cells per 4 mm^2. Foci were counted through the whole section, in a total of three sections (50 μm between sections) per SG using a 40× magnification. The results were calculated and expressed as foci per 4 mm^2. The focus scores were assessed blindly by two different examiners and the mean scores were determined.
A hallmark of pSS is lymphocytic infiltration in the […] glands, especially salivary and lacrimal glands. To determine the effect of elevated BMP6 on the local immune environment of the salivary gland, histopathological scoring for lymphocytic infiltrates was performed on both salivary and lacrimal glands 20 weeks post cannulation. […] Furthermore, no changes in circulating autoantibodies to anti-Ro/SSA or anti-La/SSB were detected in the animals expressing BMP6 in the salivary glands compared with control mice (FIGS. 5C and 5D).

[2] = test system: HSG cells (a human salivary gland cell line); test: Regulated volume decrease (RVD) after hypotonic solution in HSG cells; assay type: cell-based; settings: 6 ng/ml of BMP6 for 4 days
Experimental: Regulated volume decrease was measured as described previously (Liu et al., J Biol Chem 281:15485-15495, 2006). Briefly SMGs from mice were removed at the end of the study and prepared as described (Liu et al., J Biol Chem 281:15485-15495, 2006). Cells were then loaded with the fluoroprobe calcein (Molecular Probes, Inc., Eugene, Oreg.) and excited at 490 nm. Emitted fluorescence was measured at 510 nm. In situ calibration of the dye was performed. Origin 7.5 (OriginLab, Northampton, Mass.) was used for data analysis and display. Significant difference between individual groups was tested by using analysis of variance.
Although no increase in a number of immunological factors was detected, it is not possible to rule out the possibility that BMP6 expression is a trigger for expression of another soluble factor and is not directly causing the loss of RVD in isolated salivary gland cells from the treated mice. To test for a direct effect of BMP6 on RVD, HSG cells (a human salivary gland cell line) were treated with 6 ng/ml of BMP6 for 4 days and then assayed for a loss in RVD activity (FIG. 8B). […] To date little is known about the role of BMPs in SS and the present work represents the first association.

SMG ducts of mice = test: Electrical potential across the duct of the SMG; assay type: in vivo, mouse; settings: mice transduced with 10^11 particles of AAV5 expressing BMP6, vs GFP control mice
Excerpt: To measure the electrical potential (EP) across the duct of the SMGs, a procedure was developed to measure the EP by cannulating the duct and inserting the electrode in the cannula. The high impedance electrode was attached to an electrometer (model FD223, World Precision Instrument, Sarasota, Fla.). The electrical potential of the duct was read by placing the ground electronic rode on the adjacent tissues to the opening of the ducts.
To measure electrophysiologic parameters associated with Sjögren's syndrome, a measurement circuit 20 (see FIG. 10) was established between a detection electrode 22 placed in a salivary gland duct and a reference electrode 24 placed in electrical contact with adjacent oral mucosa. In this particular example, the electrical potential was measured across the ducts of SMGs. A procedure was developed to measure TEER by cannulating the electrode of a transmeter (model FD223, World Precision Instrument, Sarasota, Fla.) in the ducts of SMGs of mice (FIG. 10). […]
The detecting electrode included a cannula 26 placed on a 1 mL syringe 28, which was a fixed supporter. […] The trans-epithelial potential was read by placing the ground electrode on the tissues adjacent to the opening of the ducts. Background potential was determined by reading the potential when the detecting electronic rode was placed in saline only.

SMEI cells = test: Trans epithelial resistance (TEER) of cell monolayers in transwells; assay type: cell-based; settings: SMEI cells grown in 6 ng/ml BMP6 vs without BMP6
Experimental: (§1) Trans epithelial electrical resistance (TER) of all cell types was measured using a using a volt/ohm meter (Millicel; Millipore, Mass., USA) in an electrode chamber (EVOV; WPI, FL, USA). Cells were allowed to establish monolayers on 0.4-Am pore size polycarbonate filters in 6-mm Transwell chambers (Costar, Mass., USA).
(§2) Tight junction structures are important in the correct functioning of the salivary glands. […] To determine if BMP6 expression could alter epithelial integrity, monolayers of three well differentiated epithelia (SMEI, Caco-2, and MDCK1 cells) grown in the presence of 6 ng/ml BMP6 in transwells were tested for changes in trans epithelial resistance (TEER) compared with cells grown without BMP6 (FIG. 7A). […] BMP6 expression also changed the electrical potential of the glands as well (FIG. 7A).

MDCK1 cells = test: as above; assay type: cell-based; settings: MDCK1 cells grown in 6 ng/ml BMP6 vs without BMP6
Experimental: as §1, §2

Caco-2 cells = test: as above; assay type: cell-based; settings: Caco-2 cells grown in 6 ng/ml BMP6 vs without BMP6
Experimental: as §1, §2

B1: BMP6: A member of the TGF-β superfamily of growth factors; added to cultured cells at 6 ng/ml (protein, UniProt P22004 375-513, looked up)
Bone morphogenetic protein 6: SASSRRRQQSRNRSTQSQDVARVSSASDYNSSELKTACRKHELYVSFQDLGWQDWIIAPKGYAANYCDGECSFPLNAHMNATNHAIVQTLVHLMNPEYVPKPCCAPTKLNAISVLYFDDNSNVILKKYRNMVVRACGCH
Increase in focus score in the salivary glands [1]: > 2 fold
RVD activity of HSG cells [2]: loss of volume decrease was detected
Electrical potential in intact salivary glands (SMG ducts of mice): increase in electrical potential
Change in TEER (SMEI cells): statistically significant increase in TEER
Change in TEER (MDCK1 cells): statistically significant increase in TEER
Change in TEER (Caco-2 cells): statistically significant increase in TEER
